One series addresses T1, ubiquitin (WT) (UniProt P0CG48 1-76).
T1 construct: WT ubiquitin, the cut product of the ubiquitin precursor (G76 printed as the residue linked to Ube2N); In the rows of the crystal structure it is the ubiquitin moiety of the conjugate m8, linked by G76 to Ube2N K87; source: E. coli Rosetta 2 DE3, purified (perchloric acid precipitation, cation exchange, SEC)
The series is described as follows: crystal structure; T21-R with Ube2N^C87K/K92A~Ub, 2.8 Å, space group P1, two complexes in the asymmetric unit (2xT21-R, 2xUbe2N~Ub). The settings on record: both partners purified.

Series [1] concerns the molecule itself. The series is described as above.

B1: TRIM21-RING (residue 1-85) (domain or fragment)
chain: GSHMASAARLTMMWEEVTCPICLDPFVEPVSIECGHSFCQECISQVGKGGGSVCPVCRQRFLLKNLRPNRQLANMVNNLKEISQEARE
notes: tripeptide scar left at the N-terminus after cleavage of the GST tag; TRIM21 RING domain (T21-R), residues 1-85; Wild-type RING; a RING dimer in the crystal (2xT21-R and 2xUbe2N~Ub in the asymmetric unit); also called T21-R; TRIM21 RING domain; source: E. coli C41 DE3 or BL21 DE3, purified (glutathione sepharose, tag cleaved on beads, SEC); not shown: GST, N-terminal, cleaved
As to B1, the binding result (with ubiquitin (WT); in series [1]) was “binds” each time.

For the origin of these results see article PMC6776665, “A tri-ionic anchor mechanism drives Ube2N-specific recruitment and K63-chain ubiquitination in TRIM ligases” (Nature Communications, 2019).
